Laboratory results taken from paper PMC5074588, “TCS1, a Microtubule-Binding Protein, Interacts with KCBP/ZWICHEL to Regulate Trichome Cell Shape in Arabidopsis thaliana” (PLoS Genetics, 2016).

Biological target: tubulins (tubulin dimers; paclitaxel-stabilized microtubules)
Experiment: co-sedimentation; different concentrations of the protein added to paclitaxel-stabilized microtubules (prepolymerized from 8 uM tubulins in Fig 5A, 5 uM in S7 Fig) in PEMT buffer (1 mM MgCl2, 1 mM EGTA, 100 mM PIPES, 20 uM taxol, pH 6.9); 25 C 30 min; 100,000g 30 min; SDS-PAGE, Coomassie
Conditions: both partners purified

Sequence of tubulins (tubulin dimers; paclitaxel-stabilized microtubules) (chain, as listed by the source, chain 1 of 2): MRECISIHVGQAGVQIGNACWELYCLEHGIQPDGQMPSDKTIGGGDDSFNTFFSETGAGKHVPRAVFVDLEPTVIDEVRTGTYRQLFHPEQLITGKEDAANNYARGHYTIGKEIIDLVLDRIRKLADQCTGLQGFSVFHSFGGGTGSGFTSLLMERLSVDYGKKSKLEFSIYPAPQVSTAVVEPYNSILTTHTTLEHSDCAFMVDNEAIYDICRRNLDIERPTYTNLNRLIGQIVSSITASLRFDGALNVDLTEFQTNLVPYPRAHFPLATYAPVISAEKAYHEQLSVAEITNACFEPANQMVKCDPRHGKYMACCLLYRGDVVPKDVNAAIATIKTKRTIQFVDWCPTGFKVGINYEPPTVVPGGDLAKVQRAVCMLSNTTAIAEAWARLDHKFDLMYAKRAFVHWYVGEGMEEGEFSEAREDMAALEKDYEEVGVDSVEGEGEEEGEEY
Sequence of tubulins (tubulin dimers; paclitaxel-stabilized microtubules) (chain, as listed by the source, chain 2 of 2): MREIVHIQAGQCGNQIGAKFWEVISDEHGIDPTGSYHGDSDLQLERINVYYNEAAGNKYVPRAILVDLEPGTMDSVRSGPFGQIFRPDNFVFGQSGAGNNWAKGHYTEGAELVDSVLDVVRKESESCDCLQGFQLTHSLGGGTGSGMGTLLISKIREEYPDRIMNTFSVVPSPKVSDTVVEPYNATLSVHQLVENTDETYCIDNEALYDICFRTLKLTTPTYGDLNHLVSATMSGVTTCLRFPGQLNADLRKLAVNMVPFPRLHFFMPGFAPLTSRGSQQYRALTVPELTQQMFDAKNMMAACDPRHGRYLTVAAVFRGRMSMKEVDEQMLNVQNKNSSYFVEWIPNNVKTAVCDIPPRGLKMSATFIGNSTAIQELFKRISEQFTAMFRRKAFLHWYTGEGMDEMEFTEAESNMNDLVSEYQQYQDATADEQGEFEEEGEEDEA

B1: MBP-TCS1 (TRICHOME CELL SHAPE 1 fused to maltose binding protein) (natural protein, Arabidopsis thaliana, UniProt Q0WSY2 1-982, looked up)
chain: MDRKSWPWKKKSSEKTATVTEVVDQENGKKPSYIQISFDQYTNLNGLKDEVKSYEEKVTKLEDQIKDLDLKLSTANADIVAKEVLVKQHSKVAEEAVTGWEKAEAEASALKTHLETITLAKLTVEDRAAHLDGALKECMRQIRSLKEENEQKLHDVIATKTNQMDNLRAEFESRIGEYEEELLRCGAENDALSRSLQERSNMLMRISEEKSQAESEIEHLKNNIESCEREINTLKYETHVITKELEIRNEEKNMSMRSAEAANKQHLEGVKKIAKLEAECQRLRTLVRKKLPGPAALAQMKMEVESLGFGDHRQDHRQRRSPVRPSSPLMSPMSHMSQVSEFSLDNMQKFHKENDLLTERLLAMEEETKMLKEALAKRNSELQVSRNLCAKTANRLQTLEAQMMSKSPTKRGFEMPAEIFSRQNASNPPSMASMSEDGNEDARSVAGSLMSELSQSNKDKANAKIKKTESANQLELMDDFLEMEKLACLPNGSNANGSTDHSSADSDAEIPPATQLKKRISNVLQSLPKDAAFEKILAEIQCAVKDAGVKLPSKSHGANLNGLTEEKVIAMSNETTEEKVTIVEVITQELSDALSQIYQFVTYLSKEATACSENRTFSQKVQEFSTTFEGVLGKEKTLVDFLFDLSRVLVEASELKIDVLGFHTSTVEIHSPDCIDKVALPENKALQKDSSGEHYQNGCSQSSDSEIPDDCNGTSGYEPKLATCKFTTEEFEGLKLEKEKAESNLASCEADLEATKTKLQETEKLLAEVKSDLESAQKSNGMGETQLKCMVESYRSLETRSSELEIELTSLKGKIENLEDELHDEKENHREALAKCQELEEQLQRNNQNCPNCSVIEDDPKSKQDNELAAAAEKLAECQETILLLGKQLKSMCPQTEQVASSPSQEQQALNPEEEEYATSTNPQDSKLSSPSDKDTPSMNTMKSPVASKHRHTKSNSSSSSSGLTPEKHSRGFSRFFSTKAK
notes: TCS1, Arabidopsis thaliana, At1g19835, a 982-amino-acid coiled-coil protein; also called MBP-TCS1 fusion protein; source: E. coli Rosetta (DE3); bacterial lysate in the pull-downs
  stoichiometry N: ~0.38 M MBP-TCS1 per mole of tubulin dimers
